According to the supplement of paper PMC7877785:
± gives the uncertainty stated by the source.

Test: self-splicing fitness, log relative to wild type (ln ratio); higher = more splicing; Tetrahymena group I intron in knt gene, E. coli kanamycin selection, DiMSum; sequences stand for … in CUCUCU…GGAGGGAAAAGUUAUCAGGCAUGCACCUGGUAGCUAGUCUUUAAACCAAUAGAUUGCAUCGGUUUAAAAGGCAAGACCGUCAAAUUGCGGGAAAGGGGUCAACAGCCGUUCAGUACCAAGUCUCAGGGGAAACUUUGAGAUGGCCUUGCAAAGGGUAUGGUAAUAAGCUGACGGACAUGGUCCUAACCACGCAGCCAAGUCCUAAGUCAACAGAUCUUCUGUUGAUAUGGAUGCAGUUCACAGACUAAAUGUCGGUCGGGGAAGAUGUAUUCUUCUCAUAAGAUAUAGUCGGACCUCUCCUUAAUGGGAGCUAGCGGAUGAAGUGAUGCAACACUGGAGCCGCUGGGAACUAAUUUGUAUGCGAAAGUAUAUUGAUUAGUUUUGGAGUACUCGUGGUCG
Outline: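 Colonies from six replicate transformations of E. coli BL21(DE3) were pooled and amplicon-sequenced on an Illumina HiSeq 2500. The library placed an intron with all eight P1ex-region nucleotides randomised inside the knt kanamycin-resistance gene on pET-22b(+), and cells grew overnight at 37°C or 30°C on LB agar with or without 25 μg/mL kanamycin (plus 100 μg/mL carbenicillin, 50 μM IPTG, 0.2% rhamnose). Fitness is the DiMSum error-weighted combination of wild-type-normalised replicate fold changes, kanamycin versus none.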

Sequence | self-splicing fitness (ln) (30 °C) | self-splicing fitness (ln) (37 °C)
CGCAAGCAAUAUUACGAAGG | -1.28 ± 0.098 | -0.75 ± 0.15
CGCAAGCAAUAUUACGAAUG | -1.4 ± 0.1 | -0.303 ± 0.1
CGCAAGCAAUAUUACGACAA | -2.37 ± 0.17 | -1.51 ± 0.16
CGCAAGCAAUAUUACGAUAC | -2.51 ± 0.17 | -2.58 ± 0.33
CGCAAGCAAUAUUACGAUUG | -2.21 ± 0.056 | -1.01 ± 0.07
CGCAAGCAAUAUUACGCAUC | -2.57 ± 0.12 | -2.66 ± 0.12
CGCAAGCAAUAUUACGCAUG | -2.77 ± 0.11 | -2.19 ± 0.12
CGCAAGCAAUAUUACGCGUA | -3.47 ± 0.15 | -2.55 ± 0.12
CGCAAGCAAUAUUACGCUCA | -0.828 ± 0.076 | -0.6 ± 0.088
CGCAAGCAAUAUUACGCUUA | -3.58 ± 0.35 | -1.8 ± 0.18
CGCAAGCAAUAUUACGGAGG | -1.02 ± 0.057 | -0.818 ± 0.072
CGCAAGCAAUAUUACGGCGC | -2.37 ± 0.12 | -1.73 ± 0.18
CGCAAGCAAUAUUACGGGAA | -2.96 ± 0.2 | -2.27 ± 0.19
CGCAAGCAAUAUUACGUAGC | -3.3 ± 0.17 | -1.17 ± 0.18
CGCAAGCAAUAUUACGUAGU | -3.1 ± 0.097 | -2.75 ± 0.098
CGCAAGCAAUAUUACGUAUG | -2.25 ± 0.091 | -0.723 ± 0.091
CGCAAGCAAUAUUACGUCGU | -3.27 ± 0.13 | -2.2 ± 0.1
CGCAAGCAAUAUUACGUCUA | -1.6 ± 0.13 | -0.573 ± 0.11
CGCAAGCAAUAUUACGUGUC | -2.39 ± 0.12 | -2.68 ± 0.16
CGCAAGCAAUAUUACGUUGG | -2.66 ± 0.096 | -1.02 ± 0.1
CGCAAGCAAUAUUACGUUGU | -3.69 ± 0.11 | -2.41 ± 0.12

Sequence | self-splicing fitness (ln) (30 °C) | self-splicing fitness (ln) (37 °C)
CGCAAGCAAUAUUACGUUUG | -4.31 ± 0.26 | -2.8 ± 0.24
CGCCAGCAAUAUUACGAAUA | -3.44 ± 0.34 | 
CGCCAGCAAUAUUACGACAA | -2.46 ± 0.31 | -0.75 ± 0.15
CGCCAGCAAUAUUACGACCC | -1.84 ± 0.21 | -1.46 ± 0.39
CGCCAGCAAUAUUACGACGG | -1.65 ± 0.11 | -0.853 ± 0.12
CGCCAGCAAUAUUACGAGCA | -0.418 ± 0.064 | 0.817 ± 0.092
CGCCAGCAAUAUUACGAUGA | -2.2 ± 0.12 | -1.48 ± 0.13
CGCCAGCAAUAUUACGAUUU | -2.75 ± 0.19 | -2.62 ± 0.2
CGCCAGCAAUAUUACGCAAG | -1.03 ± 0.077 | -0.526 ± 0.091
CGCCAGCAAUAUUACGCCAU |  | -2.11 ± 0.46
CGCCAGCAAUAUUACGCGAC | -3.18 ± 0.21 | -2.15 ± 0.17
CGCCAGCAAUAUUACGCGAG | -4.1 ± 0.18 | -2.97 ± 0.25
CGCCAGCAAUAUUACGCUCC | -0.395 ± 0.13 | -1.36 ± 0.2
CGCCAGCAAUAUUACGCUGG | -3.22 ± 0.17 | -2.2 ± 0.18
CGCCAGCAAUAUUACGCUUC | -2.77 ± 0.26 | -3.27 ± 0.37
CGCCAGCAAUAUUACGGAAC | -2.64 ± 0.23 | -1.52 ± 0.24
CGCCAGCAAUAUUACGGACA | -0.882 ± 0.11 | -0.254 ± 0.11
CGCCAGCAAUAUUACGGAUA | -1.77 ± 0.18 | -1.32 ± 0.21
CGCCAGCAAUAUUACGGAUG | -2.64 ± 0.1 | -1.25 ± 0.087
CGCCAGCAAUAUUACGGAUU | -3.66 ± 0.19 | -0.897 ± 0.097
CGCCAGCAAUAUUACGGGAA | -2.84 ± 0.12 | -1.64 ± 0.1
